Results taken from IntAct's records for PubMed 26455799.

B1: Cilia- and flagella-associated protein 36 (Mus musculus), Q8C6E0 (parent)
chain: MAAEEEDEVEWVVESIAGFLRGPDWSIPILDFVEQKCEVFDDEEESKLTYTEIHQEYKELVEKLLESYLKEIGINEDQFQEACTSPLAKTRTSQAILQPVLAAEDFTIFKAMMVQKNIEMQLQAIRIIQERNGVLPDCLTDGADVVSDLEQEEMKILREVLRKSKEEYDQEEERKRKKQSSEAKMEELPVYTSEAEKMSNSQGDGEHFVQPPSEVKVHFANQSVQPLARKMELLPETSSLTQKGLKIPGLEHASMEGPIANLSALGTEELRQREHYLKQKRDKLLSMRKDTRTKQIQNTEQKGKPTREAEEMTEKPEMTAEEKQTLLKRRLLAEKLKEEVINK
B2: ADP-ribosylation factor-like protein 2 (Mus musculus), Q9D0J4 (parent)
chain: MGLLTILKKMKQKERELRLLMLGLDNAGKTTILKKFNGEDVDTISPTLGFNIKTLEHRGFKLNIWDVGGQKSLRSYWRNYFESTDGLIWVVDSADRQRMQDCQRELQSLLVEERLAGATLLIFANKQDLPGALSCNAIQEALELDSIRSHHWRIQGCSAVTGEDLLPGIDWLLDDISSRVFTAD

Variants of: B1
Settings: with arl3_mouse Arl3, Q9WUL7
Chain of arl3_mouse Arl3, Q9WUL7 (Q9WUL7 whole entry): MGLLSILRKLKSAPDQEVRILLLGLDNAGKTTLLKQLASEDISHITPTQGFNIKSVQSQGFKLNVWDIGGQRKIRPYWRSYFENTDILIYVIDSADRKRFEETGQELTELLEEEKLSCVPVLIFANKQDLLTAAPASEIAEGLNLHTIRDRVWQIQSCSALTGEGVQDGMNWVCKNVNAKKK

Effect of a mutation on the interaction, decreasing interaction strength:
E44R;E45R
E44R;L48R
L65D;C83R
L65D;C83R;V100H

Variants of: B2
Settings: with cfa36_mouse Cfap36, Q8C6E0

Effect of a mutation on the interaction, decreasing interaction strength:
L4D
F50A
